# What was measured:
# [1] = Limiting factor in RebA to RebD reaction; type: biochemical
# Protocol: Under the conditions described above for EUGT11, approximately 25% of the RebA administered was converted to RebD. The limiting factor in these conditions could be either the enzyme, UDP-glucose or RebA. Experiments were set up to distinguish between these possibilities. A standard assay was allowed to run its course during 4 hours. This was followed by addition of either extra RebA substrate, extra enzyme, extra UDP-glucose or extra enzyme and UDP-glucose.
# Experiments were conducted to examine the limit to this benefit of adding bolus amounts of UDP-glucose and fresh enzyme in the conversion of RebA to RebD reaction. Additional enzyme or enzyme and UDP-glucose were added after 1, 6, 24 and 28 hours. In the case of the addition of both extra EUGT11 and UDP-glucose, a conversion of more than 70% was achieved. […] Alternatively, as explained below, EUGT11 may be metabolizing the UDP-glucose.
# [2] = Enzyme kinetics with UDP-glucose as substrate; type: biochemical
# Protocol: A series of experiments were performed to determine kinetic parameters of EUGT11 and 91D2e-b. For both enzymes, 100 μM RebA, 300 μM UDP-glucose, and 10 U/mL Alkaline Phosphatase (Fermentas/Thermo Fisher, Waltham, MA) were used in the reactions. For EUGT11, the reactions were performed at 37° C. using 100 mM Tris-HCl, pH 7, and 2% enzyme. For 91D2e-b, the reactions were performed at 30° C. using 20 mM Hepes-NaOH, pH 7.6, 20% (by volume) enzyme. The initial velocities (V0) were calculated in the linear range of a product versus time plot.
# Vmax and KM parameters were determined from the curve-fit Lineweaver-Burk data, calculated from the x- and y intercepts (x=0, y=1/Vmax) and (y=0, x=−1/KM). Additionally, the same parameters also were calculated by a non-linear least squares regression, using the SOLVER function in Excel. The results obtained with both methods for EUGT11 and RebA are presented in Table 12, along with all the kinetic parameters of this example. Kcat is calculated based on Vmax divided by the approximate amount of protein in the assay.
# In order to investigate the influence of UDP-glucose concentration in the glycosylation reaction, as well as the affinity of EUGT11 for UDP-glucose, similar kinetics analysis were performed. EUGT11 was incubated with increasing amounts of UDP-glucose (20 μM, 50 μM, 100 μM, and 200 μM), maintaining an excess of RebA (500 μM).
# In the case of UGT91D2e-b, RebA concentrations assayed were 50 μM, 100 μM, 200 μM, 300 μM, 400 μM and 500 μM. Concentration of UDP-glucose was always three times the concentration of RebA and incubation was performed at 30° C., in the reaction conditions described above for UGT91D2e-b. Additionally, kinetic parameters of UGT91D2e-b towards UDP-glucose were determined. UGT91D2e-b was incubated with increasing amounts of UDP-glucose (30 μM, 50 μM, 100 μM, and 200 μM), maintaining an excess of RebA (1500 μM). incubation was performed at 30° C., in optimal conditions for UGT91D2e-b.
# [3] = Denaturation temperature by differential scanning calorimetry (DSC); type: physicochemical; conditions: 6HIS-purified enzymes, 91D2e-b GST-purified
# Protocol: To assess the thermal stability of EUGT11 and to compare it with the other UGTs in the steviol glycosylation pathway, denaturation temperatures of the proteins were determined using differential scanning calorimetry (DSC). Use of DSC thermograms to estimate denaturation temperatures, TD, is described, for example, by E. Freire in Methods in Molecular Biology 1995, Vol. 40 191-218. DSC was performed (using 6HIS-purified EUGT11, yielding an apparent TD of 39° C.; while when GST-purified 91D2e-b was used, the measured TD was 79° C. For reference, the measured TD when using 6HIS-purified UGT74G1, UGT76G1 and UGT85C2 was 86° C. in all cases. One of skill in the art will recognize that enzyme immobilization or addition of thermal protectants can be added to the reactions to improve stability of the protein. Non-limiting examples of thermal protectants include trehalose, glycerol, ammonium sulphate, betaine, trimethylamine oxide, and proteins.
# [4] = In vitro transcribed and translated UGTs incubated with steviol, LC-MS; type: biochemical
# Protocol: (§1) EUGT11 was produced by in vitro transcription and translation, and incubated with various substrates in the RebD pathway. Similar experiments were carried out using in vitro transcribed and translated UGT91D2e. […] Compounds 1-3 were identified solely by mass and expected retention time. The numbers shown in FIG. 3 are the average peak height of the indicated steviol glycoside obtained from a LC-MS chromatogram, and, although not quantitative, can be used to compare the activity of the two enzymes. […] Both enzymes were able to convert steviol 19-O-monoglucoside (SMG) to compound 1, with EUGT11 being about ten times more efficient than UGT91D2e at converting 19-SMG to compound 1.
# [5] = Stability of EUGT11: pre-incubation before RebA to RebD reaction; type: physicochemical
# Protocol: Reactions were conducted to explore the stability of EUGT11 under various RebA to RebD reaction conditions. Omitting the substrate from the reaction mixture, EUGT11 was pre-incubated for various periods of time before substrate was added. Following a pre-incubation of the enzyme in 100 mM Tris-HCl buffer, substrate (100 μM RebA) and other reaction components (300 μM UDP-glucose, and 10 U/mL Alkaline Phosphatase (Fermentas/Thermo Fisher, Waltham, MA)) were added (0, 1, 4 or 24 hours after the incubation was started). The reaction was then allowed to proceed for 20 h, after which the reactions were stopped and RebD product-formation measured. Experiments were repeated at different temperatures: 30° C., 32.7° C., 35.8° C. and 37° C.
# [6] = In vitro transcribed and translated UGTs incubated with rubusoside, LC-MS; type: biochemical
# Protocol: as §1
# The left panel of FIG. 5 contains LC-MS chromatograms of the conversion of rubusoside to stevioside. The right panel of FIG. 5 contains chromatograms of the conversion of rubusoside to stevioside, to compound 2, and to compound 3 (RebE). Conversion of rubusoside to compound 3 requires two consecutive 1, 2-O-glycosylations at the 19- and 13-positions of steviol.
# [7] = In vitro transcribed and translated UGTs incubated with 19-SMG, LC-MS; type: biochemical; conditions: average LC-MS peak height, not quantitative
# Protocol: as §1
molecule,measurement,setting,value
"EUGT11: UDP glycosyl transferase from Oryza sativa (GenBank AC133334), SEQ ID NO:152 (protein, listed as Oryza sativa) MDSGYSSSYAAAAGMHVVICPWLAFGHLLPCLDLAQRLASRGHRVSFVSTPRNISRLPPVRPALAPLVAFVALPLPRVEGLPDGAESTNDVPHDRPDMVELHRRAFDGLAAPFSEFLGTACADWVIVDVFHHWAAAAALEHKVPCAMMLLGSAHMIASIADRRLERAETESPAAAGQGRPAAAPTFEVARMKLIRTKGSSGMSLAERFSLTLSRSSLVVGRSCVEFEPETVPLLSTLRGKPITFLGLMPPLHEGRREDGEDATVRWLDAQPAKSVVYVALGSEVPLGVEKVHELALGLELAGTRFLWALRKPTGVSDADLLPAGFEERTRGRGVVATRWVPQMSILAHAAVGAFLTHCGWNSTIEGLMFGHPLIMLPIFGDQGPNARLIEAKNAGLQVARNDGDGSFDREGVAAAIRAVAVEEESSKVFQAKAKKLQEIVADMACHERYIDGFIQQLRSYKD",conversion of RebA to RebD,"[1]; extra EUGT11 and UDP-glucose added after 1, 6, 24 and 28 hours",more than 70%
same,RebA converted to RebD,[1]; standard conditions for EUGT11,approximately 25%
same,Kcat,[2]; Lineweaver-Burk plot,12.1 min⁻¹
same,Km,[2]; Lineweaver-Burk plot,118 µM
same,Vmax,[2]; Lineweaver-Burk plot,0.78 µM/min
same,Kcat,[2]; Nonlinear Least Square Fit,12.32 min⁻¹
same,Km,[2]; Nonlinear Least Square Fit,130 µM
same,Vmax,[2]; Nonlinear Least Square Fit,0.79 µM/min
same,denaturation temperature TD,[3],39 °C
same,use of steviol as a substrate,[4],not able to use steviol as a substrate
same,activity after pre-incubation,"[5]; 30° C., 4 hours",not significantly reduced
same,activity remaining after pre-incubation,"[5]; 30° C., 24 hours",approximately one-third
same,activity remaining after pre-incubation,"[5]; 37° C., 1 hour",approximately half
same,activity remaining after pre-incubation,"[5]; 37° C., 4 hours",almost no activity
same,amount of compound 3 (RebE) produced from rubusoside,[6],significant amount
same,efficiency at converting 19-SMG to compound 1 compared with UGT91D2e,[7],about ten
